The text below walks through data of patent publication US20100322948A1, “Bone morphogenetic protein (BMP)-binding domains of proteins of the repulsive guidance molecule (RGM) protein family and functional fragments thereof, and use of same” (ABBOTT GMBH & CO. KG, priority 2007, published 2010).

Ends that are not written are not given here.

In assay [1] the target is T1, BMP-4 (Homo sapiens, UniProt P12644).
T1 construct: purchased R&D Systems 314-BM
T1 sequence (P12644 293-408): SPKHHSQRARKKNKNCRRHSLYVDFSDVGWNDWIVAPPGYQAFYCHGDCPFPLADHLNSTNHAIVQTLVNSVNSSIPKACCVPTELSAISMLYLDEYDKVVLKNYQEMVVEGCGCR
The assay can be described thus: In vitro interaction test, variant A: immobilized BMP-4, detection of binding of RGMA-Fc fusion proteins. The following applies: Working Example 3, FIG. 5; detection anti-human-Fc or anti-Myc. Here is the method:
Test Method 4: In Vitro Interaction Test for Determining the Interaction between RGMA and BMP-2 and -4
The interaction tests were carried out as described below:
Variant A: Immobilization of the BMP-2/ or -4 Protein and Detection of the Binding of Various RGMA-Fc Fusion Proteins
1. Plate: • Immunoplate Cert. MaxiSorp F96 (Nunc, 439454)
Recombinant human BMP-2, Catalog No.: 355-BM, Company: R&D Systems; Recombinant human RGM A, R&D Systems; Prod. #2495-RM, or
Recombinant human BMP-4, Catalog No.: 314-BM, Company: R&D Systems; • Concentration: 10 μg/mL • Volume used: 2.5 μg/mL in Na2CO3; addition: 50 μL per well • 1 hour at 37° C. in damp chamber
3. Washing step: • Wash 3× with PBS/[…] Tween 20
4. Blocking: • 3% BSA in PBS/0.02% Tween, 1 hour at 37° C. in damp chamber; addition: 200 μL per well
RGMA-Fc fragments, • 1 μg/mL initial concentration, then dilution down to 1:2 using PBS/0.02% Tween20 • […] • 1 hour at 37° C. in damp chamber
6. Washing step: • Wash 3× with PBS/0.02% Tween 20
Biotin anti-human Fc (R&D-Systems), Catalog No.: 709065; 1 mg/mL; • 1:200 in 0.6% BAS/PBS-T (0.02% Tween) • Addition: 50 μL per well • 1 hour at 37° C. in damp chamber
8. Secondary antibody: Strep. POD (Roche); Catalog No.: 11089153001 • 500 U; 1:5000 in 0.6% BAS/PBS-T (0.02% Tween) • Addition: 50 μL per well • 1 hour at 37° C. in damp chamber
9. Washing step: • Wash 3× with PBS/0.02% Tween 20
ImmunoPure TMB substrate kit; Pierce, #34021 • Development period: approximately 1-30 minutes • 1:1 mixture of […]; addition: 50 μL per well
11. Stop: • 2.5 M H2SO4; addition: 50 μL per well
The test was conducted according to test method 4, variant A above, with immobilization of BMP-4 (1 mg/mL). The binding of the fusion proteins was detected using anti-human-Fc or anti-Myc anti-rabbit (Invitrogen) antibodies.
The test was conducted according to test method 4, variant A above, with immobilization of BMP-4 (1 mg/mL). The binding of the fusion proteins was detected using anti-human-antibodies.

The subject of assay [2] is BMP signalling (rhBMP-2-induced luciferase activity). The assay can be described thus: BRE-Luc assay on BMP signalling in BMP-responsive C3H10-B12 cells. The assay is classed as cell-based. Conditions: combined with rhBMP-2 at 50 ng/ml, 24 h. Here is the method:
Evaluation of the Agonistic or Antagonistic Effect of h RMG A on BMP Signalling using BRE-Luc Assay
a) Materials: • Three compounds were provided at 200 μg/ml.
fragment #788 (IgK/hRGM A 47-422/Xa cleavage site/Fc) • recombinant h BMP-2 (from CHO cells; #355-BM) and monoclonal anti-human BMP2/4 antibodies (#MAB3552) were obtained from R&D Systems Europe, Lille, France • Bright-Glo Luciferase assay kit were purchased from Promega
All experiments were performed in triplicate, and were repeated at two separate times.

Assay [3] deals with T2, Recombinant human BMP-4 (human, UniProt P12644 293-408).
T2 construct: Bought protein; also called hBMP-4
T2 sequence (looked up): T1 sequence (P12644 293-408)
Put plainly: ELISA, BMP-4 immobilised, fragment titrated, detection with anti-human Fc antibody. An excerpt: The binding of the fusion proteins was detected using anti-human-antibodies.

For assay [4], the system named is SH-SY5Y cells. Put plainly: Neurite growth assay using SH-SY5Y cells (test method 1). The format is cell-based, human. The following applies: FIG. 7A. The text has this:
Test Method 1: Illustration of the Effect of RGM Peptides in the Neurite Growth Assay, Using SH-SY5Y Cells
SH-SY5Y cells are human neuroblastoma cells. Blastomas are embryonic tumors which originate during tissue and organ formation. The origin of the blastoma cells is frequently unknown, since in early embryonic states the differentiation of many cells is still premature; i.e., the blastoma cells are a heterogeneous cell population. The cells of a neuroblastoma, referred to as neuroblasts, originate from the neural crest (structure of the embryonic state) from the autonomous nerve tissue, and are practically arrested in an immature stage. The cells in the present case originated from a clonal subculture of the neuroepitheliomal cell line SK-N-SH which were isolated in 1970 in a bone marrow biopsy of a child with metastases of the neuroblastomas.
Culture Medium for SH-SY5Y Cells (ECACC No. 94030304)
The medium was sterile-filtered using a Nunc 500-mL filter, and was stored in a refrigerator at 4° C. until used. Before use, the medium was heated to 37° C. in a water bath.
SH-SY5Y cells are epithelial, neuron-like cells which slowly adherently grow in a monolayer and never attain a confluence of 100% (maximum 80%). The cell culture was split 1:3 two times per week. Isolation of the cells requires incubation with trypsin for 1-3 minutes in an incubator.
Since this is a population of still immature precursor cells, it is possible to differentiate the cells using retinoic acid, so that a certain percentage of the cells acquire neurite-like extensions. For this purpose the culture was incubated in the medium with 10 μM retinoic acid directly in the culture dish or flask, depending on the test, for 3 days.
Microtiter plates (96-well) (containing collagen I-coated plates) were additionally coated with the hRGM A fragments. After washing two times with PBS the cells were seeded. […] In the quantitative analysis the SH-SY5Y cells grown on hRGM A fragments were compared to SH-SY5Y grown on collagen I alone. The neurite length of the cells was automatically measured and used for the analysis. […]

Assay [5] relates to NTera-2 cells. The assay can be described thus: Neurite growth test using NTera-2 cells (test method 2). The assay is classed as cell-based, human. Conditions: FIG. 7B. The text has this: Test Method 2: Illustration of the Effect of RGM Peptides in the Neurite Growth Test, Using NTera-2 Cells
The human pluripotent cancer cell line NTera2 (DSMZ ACC527) is established as a cell culture model. Neurites grow from cell aggregates and form a corona of neurites around the particular aggregate.
NTera-2 cells are human embryonic teratocarcinoma cells. A carcinoma is a cancerous tumor, whereas a teratoma or teratocarcinoma is a mixed tumor of the germ cells composed of various differentiated and undifferentiated tissues, and therefore, the same as for the SH-SY5Y culture, comprises a heterogeneous population. The tumor is usually present in an encapsulated form in the various types, such as hair, skin, teeth, muscle, and nerve tissue. The tumors typically originate in the ovaries, testes, abdominal cavity, or brain. The cell line was cloned from the Tera-2 line, obtained from a metastatic teratocarcinoma in a person.
NTera-2 cells are epithelial, adherently growing cells which form a monolayer. Due to the large number of granular particles which they contain, NTera-2 cells may be easily differentiated from the other cells. The cells were cultivated by 1:5 splitting twice a week. The cells of this mixed culture may be differentiated using retinoic acid in neuronal cells.
Culture Medium Fur Growth […]
In order to differentiate the cells it was necessary to introduce antibiotic into the culture medium of the cell line due to the fact that the cells remained in the same culture flask for three weeks. Previously, the undifferentiated culture had been detrypsinated and the cell count determined using a Neubauer counting chamber. […] 25 μL retinoic acid (10 μM) was readded to the medium under dim light conditions. […]
The culture was stored in an incubator at 37° C. with 5% CO2 gassing, and the medium was changed at the beginning and at the end of the week. […] After three weeks the cells were differentiated and were ready for use in experiments. […]
Different plate formats were used for the tests. For the isolation of protein, 6-well plates were necessary for recovering a sufficient quantity. […]

As for “fragment #785: Fc fusion protein of human RGM A amino acids 47-90 (PCKILKCNSEFWSATSGSHAPASDDTPEFCAALRSYALCTRRTA; cysteine pairing not given here; also: Fc fusion protein (dimerising Fc))”, the “binding to immobilized BMP-4” value in assay [1] is recorded as “Significant concentration-dependent binding”. Further, in assay [2], the “effect on BMP-2-induced luciferase activity” value is given as “did not significantly modify”.

B1: 47-90-Fc (#785) (Fc fusion)
chain: PCKILKCNSEFWSATSGSHAPASDDTPEFCAALRSYALCTRRTA
notes: Expressed in HEK293F cells; IgK leader left out; also called fragment 47-90; not shown: Factor Xa site from the vector; human IgG Fc (hIgG lambda hc 257-Stop)
With B1, in assay [3], the binding result is on record as “binds”.

B2: 316-386-Fc (#790) (Fc fusion)
chain: LRGCPLNQQIDFQAFHTNAEGTGARRLAAASPAPTAPETFPYETAVAKCKEKLPVEDLYYQACVFDLLTTG
notes: also called fragment #790; not shown: Factor Xa site from the vector; human IgG Fc (hIgG lambda hc 257-Stop)
For B2, in assay [3], the binding result is given as “binds”.

B3: fragment #790: Fc fusion protein of human RGM A amino acids 316-386 (protein)
chain: B2 chain
modifications: left off: small tags and cut ends; a dimerising Fc or GST
Regarding B3, the “binding to immobilized BMP-4” value in assay [1] is listed as “Significant concentration-dependent binding”. Moreover, the “inhibition of neurite growth” value in assay [4] and in assay [5] was “inhibit the neurite growth” in each case.
